# Experimental data reported in publication PMC9816786 (Molecular Metabolism, 2022).
# B1: CHRD (aa 449–693) of human PCSK9, 6xHis-tagged (domain or fragment, UniProt Q8NBP7 449-692, looked up)
# chain: HGAGWQLFCRTVWSAHSGPTRMATAVARCAPDEELLSCSSFSRSGKRRGERMEAQGGKLVCRAHNAFGGEGVYAIARCCLLPQANCSVHTAPPAEASMGTRVHCHQQGHVLTGCSSHWEVEDLGTHKPPVLRPRGQPNQCVGHREASIHASCCHAPGLECKVKEHGIPAPQEQVTVACEEGWTLTGCSALPGTSHVLGAYAVDNTCVVRSRDVSTTGSTSEGAVTAVAICCRSRHLAQASQELQ
# modifications: biotinylated where it was immobilised for BLI (site not told)
# notes: human PCSK9, C-terminal Cys/His-rich domain, aa 449-693 as printed (modules M1 453-529, M2 530-603, M3 604-692); also called C-terminal Cys/His-rich domain; CHRD alone; source: FreeStyle293 FS cells, transfected, purified (NiNTA, size-exclusion chromatography)
# B2: P1.40, CHRD-specific single domain antibody (nanobody), purified from E. coli (VHH)
# VHH: QVKLEESGGGLVQAGGSLRLSCSPSDRTFSAYAMGWFRQVPGREREFVATIRDSDASIYYTDSVKGRFTISRDNAKNTVYLQMNSLIPDDTAVYYCAARQYYSGRVYSTFREEYDYWGQGTQVTVSS
# notes: TEV site ENLYFQ/G: a glycine may be left at the N-terminus after cleavage; also called nanobody P1.40; biotinylated P1.40; source: E. coli BL21 (DE3) pLysS, purified (HisTrap, TEV cleavage, size-exclusion chromatography); not shown: DsbC, N-terminal, cleaved; His6, N-terminal, cleaved
# B3: P1.40 expressed on yeast cells (cell surface, HA-tagged) (VHH)
# VHH: B2 VHH
# What was measured:
# [1] = target: T1, Human CAP1 (cyclase associated protein 1), 6xHis-tagged, purified (human, UniProt Q01518 1-475, biotinylated where it was immobilised for BLI (site not told)); test: BLI; biotinylated PCSK9 or biotinylated CHRD immobilised (0.2 μg/ml), CAP1 in solution, pH 7.5, association and dissociation 600 s; settings: both partners purified
# T1 construct: human adenylyl cyclase-associated protein 1 (CAP1), cDNA cloned into pCMV; also called adenylyl cyclase-associated protein 1; biotinylated CAP1; source: FreeStyle293 FS cells, transfected, purified (NiNTA, size-exclusion chromatography)
# [2] = target: T2, Human PCSK9 (full length), 6xHis-tagged, purified (human, UniProt Q8NBP7, biotinylated where it was immobilised for BLI (site not told)); test: SEC + other: SAXS; size exclusion chromatography followed by small angle X-ray scattering of PCSK9 alone or in complex with P1.40, in solution; settings: both partners purified
# T2 construct: human PCSK9, full length cDNA in pIRES2-EGFP; also called full-length PCSK9; proprotein convertase substilisin kexin 9; source: FreeStyle293 FS cells, transfected, purified (NiNTA, size-exclusion chromatography)
# [3] = target: T2, Human PCSK9 (full length), …; test: BLI; biotinylated P1.40 immobilised (0.25 μg/μL), PCSK9 or CHRD in solution, pH 7.5, 1:1 binding model; association 3600 s (PCSK9) or 1800 s (CHRD), dissociation 3600 s; settings: both partners purified
# [4] = target: T3, CHRD (aa 449–693) of human PCSK9, 6xHis-tagged (human, UniProt Q8NBP7, biotinylated where it was immobilised for BLI (site not told)); test: as above; settings: both partners purified
# T3 construct: human PCSK9, C-terminal Cys/His-rich domain, aa 449-693 as printed (modules M1 453-529, M2 530-603, M3 604-692); also called C-terminal Cys/His-rich domain; CHRD alone; source: FreeStyle293 FS cells, transfected, purified (NiNTA, size-exclusion chromatography)
# CHRD D480A mutant = target: T4, CHRD D480A mutant (Homo sapiens (Human)., UniProt Q8NBP7, D480A); test: flow cytometry on cells; P1.40 or its mutants expressed on yeast cells (HA-tagged), 6xHis-tagged CHRD or its mutants in solution; cell binding assays and FACS sorting for deep mutational scanning; settings: one partner purified
# T4 construct: human PCSK9 CHRD, aa 449-693 as printed for the parent construct; source: HEK293 cells
# CHRD F456A mutant = target: T5, CHRD F456A mutant (Homo sapiens (Human)., UniProt Q8NBP7, F456A); test: as above; settings: one partner purified
# T5 construct: human PCSK9 CHRD, aa 449-693 as printed for the parent construct; source: HEK293 cells
# CHRD R476A mutant = target: T6, CHRD R476A mutant (Homo sapiens (Human)., UniProt Q8NBP7, R476A); test: as above; settings: one partner purified
# T6 construct: human PCSK9 CHRD, aa 449-693 as printed for the parent construct; source: HEK293 cells
# T1 sequence (Q01518 whole entry): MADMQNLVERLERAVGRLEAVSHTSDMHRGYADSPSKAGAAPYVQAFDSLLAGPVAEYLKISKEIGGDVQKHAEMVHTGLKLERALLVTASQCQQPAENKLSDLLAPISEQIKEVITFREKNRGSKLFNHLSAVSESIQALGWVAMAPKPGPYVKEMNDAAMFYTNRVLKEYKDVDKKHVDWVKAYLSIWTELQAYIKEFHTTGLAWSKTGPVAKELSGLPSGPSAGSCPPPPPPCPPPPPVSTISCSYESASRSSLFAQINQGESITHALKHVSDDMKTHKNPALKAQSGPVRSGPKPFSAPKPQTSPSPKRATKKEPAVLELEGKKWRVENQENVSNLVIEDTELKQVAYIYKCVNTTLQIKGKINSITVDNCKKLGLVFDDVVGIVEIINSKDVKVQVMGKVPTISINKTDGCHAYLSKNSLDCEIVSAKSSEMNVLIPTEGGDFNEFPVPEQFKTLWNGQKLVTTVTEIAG
binder,measurement,setting,value
B1,Kd,[1],1260 nM
same,koff,[1],0.0007 s⁻¹
same,kon,[1],560 M⁻¹ s⁻¹
B2,stoichiometry N,[2],1
same,Kd,[3],5.6 nM
same,koff,[3],9e-06 s⁻¹
same,kon,[3],1600 M⁻¹ s⁻¹
same,Kd,[4],0.0903 nM
same,koff,[4],3.5e-05 s⁻¹
same,kon,[4],380000 M⁻¹ s⁻¹
B3,fold decrease of affinity against wild-type CHRD,CHRD D480A mutant,142 fold
same,fold decrease of affinity against wild-type CHRD,CHRD F456A mutant,12 fold
same,fold decrease of affinity against wild-type CHRD,CHRD R476A mutant,17 fold
